Test results: the DeepSol protein solubility set

Assay: soluble on expression in E. coli; label from the status in PepcDB or PDB records
In the case of “MEGDGSDPEPPDAGEDSKSENGENAPIYCICRKPDINCFMIGCDNCNEWFHGDCIRITEKMAKAIREWYCRECREKDPKLEIRYRHKKSRERDGNERDSSEPRDEGGGRKRPVPDPDLQRRAGSGTGVGAMLARGSASPHKSSPQPLVATPSQHHQQQQQQIKRSARMCGECEACRRTEDCGHCDFCRDMKKFGGPNKIRQKCRLRQCQLRARESYKYFPSSLSPVTPSESLPRPRRPLPTQQQPQPSQKLGRIREDEGAVASSTVKEPPEATATPEPLSDEDLPLDPDLYQDFCAGAFDDHGLPWMSDTEESPFLDPALRKRAVKVKHVKRREKKSEKKVMERKEERYKRHRQKQKHKDKWKHPERADAKDPASLPQCLGPGCVRPAQPSSKYCSDDCGMKLAANRIYEILPQRIQQWQQSPCIAEEHGKKLLERIRREQQSARTRLQEMERRFHELEAIILRAKQQAVREDEESNEGDSDDTDLQIFCVSCGHPINPRVALRHMERCYAKYESQTSFGSMYPTRIEGATRLFCDVYNPQSKTYCKRLQVLCPEHSRDPKVPADEVCGCPLVRDVFELTGDFCRLPKRQCNRHYCWEKLRRAEVDLERVRVWYKLDELFEQERNVRTAMTNRAGLLALMLHQTIQHDPLTTDLRSSADR”, the “soluble on expression in E. coli” value is reported as “soluble”. With “MEGESVKLSSQTLIQAGDDEKNQRTITVNPAHMGKAFKVMNELRSKQLLCDVMIVAEDVEIEAHRVVLAACSPYFCAMFTGDMSESKAKKIEIKDVDGQTLSKLIDYIYTAEIEVTEENVQVLLPAASLLQLMDVRQNCCDFLQSQLHPTNCLGIRAFADVHTCTDLLQQANAYAEQHFPEVMLGEEFLSLSLDQVCSLISSDKLTVSSEEKVFEAVISWINYEKETRLEHMAKLMEHVRLPLLPRDYLVQTVEEEALIKNNNTCKDFLIEAMKYHLLPLDQRLLIKNPRTKPRTPVSLPK” the “soluble on expression in E. coli” value was “soluble”. For “MEGISKPMERYDSVVFAGMKQDGTIEFIKVYALNEDLAITILDQFLRENNLHPSDFVVIQRGLEDIKGKDIISTRTEEDLSAMLARLGLRLVSNGVLHTRGAEKIYQITAISKSLIERLQGEDKDKVSTIIKEEISIDFSNLKLPEKYMKKLLLLSLMEDTFILNRAELNVPEVIKRAVKGVVSIPRLIERDNIIIKVFDEELHTVQGSYLDRVIITPPVVHWDAHIDELDSFSFQEVEENVYEPPLFVKAMKGFLVLTEPPRDLVVMLLKLKRRGEVKVSLKGRQIRIPLNFTLVVDTKYPERYSGLKFPIRINLPPFDDETFAQMLSMVLGTKVPQDLVAMFPEEYKTFLGVEILSNLWKKLRKRGRKSEIELLKEMATIVTGGII”, the “soluble on expression in E. coli” value was “soluble”. In the case of “MEGQENKVLFGLENVHYATYSETDGVITYDTPKPLPGGVEISVEPQGDMIKFYADNIVYYQAPNNQGYEGTLTIASIPEGFATDCLGEELDTVDGVLTEKSDAKPKPFALLFEFDGDVKSVRQVLYNCTASRPTVASSTLEHHHHHH”, the “soluble on expression in E. coli” value is reported as “soluble”. In the case of “MEGVRLGWRGLSREGRGGAWHAAERTRPCTQRVPPSSQKIALQLKATLENVTNLRPVGEDFRWYLKMKCGNCGEISEKWQYIRLMDSVALKGGRGSASMVQKCKLCARENSIDILSSTIKAYNAEDNEKFKTIVEFECRGLEPVDFQPQAGFAADGVESGTVFSDINLQEKDWTDYDEKAQESVGIFEVTHQFVKC”, the “soluble on expression in E. coli” value is reported as “soluble”. With “MEHLGKVFREFRTSGNYSLKEAAGESCSTSQLSRFELGESDLAVSRFFEILDNIHVTIENFMDKARNFHNHEHVSMMAQIIPLYYSNDIAGFQKLQREQLEKSKSSTTPLYFELNWILLQGLICQRDASYDMKQDDLGKVADYLFKTEEWTMYELILFGNLYSFYDVDYVTRIGREVMEREEFYQEISRHKRLVLILALNCYQHCLEHSSFYNANYFEAYTEKIIDKGIKLYERNVFHYLKGFALYQKGQCKEGCKQMQEAMHIFDVLGLPEQVAYYQEHYEKFVKS” the “soluble on expression in E. coli” value was “not soluble”. With “MEIGDVSTGYLEDALIEFSGRSKRRRLSFNGAEDKPDNDLDHSQNHWGLSENYSCTSSQFAEKNDYDEKKRVVYPFGVVKPGGREEDITLNDINKRILMPSARPVRHPVGDFACRPCVSADGPGLSGKAVVAFTKIQTLGRGTITIIRTKG” the “soluble on expression in E. coli” value was “soluble”. For “MEIIIVGGFLGSGKTTTLNHLITDALDHNLKTALIINEFGKMSVDSQLIHPTIPISEIVEGCICCAMKSNVSQQLHEIYLEHQPDLVFIECSGIAEPLAVVDACLTPVLAPITTIRSMLGIIDAKLYEKIETYPRDIQALFYEQLSYCSTLFVNKIDIADFNQVARLLRHLEVINRDANIQVGQWGELALNTLLNVKHLDAKQRGTLHHAINHQLIDTPRSQTKADFIERLTQLPQQVYRVKGFVRFTDSKLIHLVQYAEGEIELTPIQFKSDVPLYLVVIGKHLDAIELDLLEHHHHHH”, the “soluble on expression in E. coli” value was “not soluble”. For “MEILSGRSSIIIDTDPINVYNQAHPPFSFPIPAKDVMSVASRPDLRNENLMVFSSIEGDLALLKSMNLPANVKIVYDNTDGSWVRYYPYAFYRSINAEELYAKIDDFVVLDIREEFELFSGFIEGSVNIPFSSIMQEPVELDKNRKYAVVCAHGNRSRVAVELLSSKGIEVYDVPGGMQKWLETGLPVSYEED”, the “soluble on expression in E. coli” value was “not soluble”. For “MEIPPTNYPASRAALVAQNYINYQQGTPHRVFEVQKVKQASMEDIPGRGHKYRLKFAVEEIIQKQVKVNCTAEVLYPSTGQETAPEVNFTFEGETGKNPDEEDNTFYQRLKSMKEPLEAQNIPDNFGNVSPEMTLVLHLAWVACGYIIWQNSTEDTWYKMVKIQTVKQVQRNDDFIELDYTILLHNIASQEIIPWQMQVLWHPQYGTKVKHNSRLPKEVQLE”, the “soluble on expression in E. coli” value was “soluble”. With “MEIPSYASNIQPYGSQSGTKIASENDNAKSVSLSGDNSRSVSRTDKLSEHFSEQVRARQQESAETAMAQAKQRQRLNEEQLAKMVEQMNEFVKSINKGLSFRLDRESGREVVTIYEASTGDIIRQIPEEEMLEVLRRLAREQDHRSGLLMAKV” the “soluble on expression in E. coli” value was “not soluble”. In the case of “MEITRLLTLYYEATPDPQNPLEGVRFGTSGHRGSSLKATFTEAHVLAIAQAIAELRPSFGATGPLFLAKDTHALSEPAWATALSVFAAHGIEVRVEADGDYTPTPLVSLAILEHNAHHEAKADGVLLTPSHNPPEDGGFKYNPPTGGPANARITRAIEERANALLQEGLKGVKRLPLREALARAKPFDYAGLYVEKVAEAVDLEAIRASGLRIGVDPLGGASLRVWERLAESHGLPLEVVNPTLDPTFRFMPKDHDGKIRMDCSSPYAMAGLLALKDRFDLAIGNDPDADRHGIVTPRGLMNPNHYLAAALHHLYTTRSWPGAKVGKTAVTSALLDRVAQALGREVYETPVGFKHFVAGLLEGWLGFAGEESAGASFLRFDGRPFSTDKDGILMGLLAAELMAKRGQAPDALYEALAEKLGRPYYARKDLPVSPEAKARLARLSAKEVHPSTLAGEPVLQVLDRATGNGEPLGGIKVVAANAWFAVRPSGTEDVAKVYAESFLGEAHLERVLEEATALLHKALA”, the “soluble on expression in E. coli” value is reported as “soluble”. In the case of “MEKEKSKTESLKKDEIDEANSESSKVPLAIDPEEAKLPNAGGKSEHMVVNFTSKRMAIKVRCGNALFRVEPTHMIIEPNKCRQLTINRMPGPIQKDKAIVQYLQIENDVQDPKTAFKAADSAGTKIPHLKIKLVAGASGGRQMSREVVDE”, the “soluble on expression in E. coli” value is reported as “not soluble”. In the case of “MEKFNNIAQLKDSGLKVTGPRLKILDLFETHAEEHLSAEDVYRILLEEGVEIGVATIYRVLTQFEQAGILQRHHFETGKAVYELDKGDHHDHIVCVKCGEVTEFHNPEIEALQDKIAEENGYRIVDHALYMYGVCSDCQAKGKR”, the “soluble on expression in E. coli” value is reported as “not soluble”. In the case of “MEKIAVVGAGITGLFTAYYLSASGFDVEVFDKGDIASGTSGKFHGMLHSGARYAVTDKVSASECISENNTISSFARWFINDTGGYFVSSNREESDYGDTLTKACNDAGIPNYDIDVDEFKKIEPNVKNVDRVIHVPDKVIRAYEFSAAVAAEAFMNGTKFRLYSPVASVSEKGGKYVLGIERNGSLHYEHFDLIVNATGPFSGEFLKLAGYGGSPVMPSAGIMVVFSKPIVRSIINRMREPSDADIMVPYDGLSILGTSAVIVDDPENFSIDSEDVEAMIEDMSSLIPLIRNVNYSRTYYSVRPLLEDEGDDARKASRSFRIIKNGEGVFTVVGGKFTTGRLIGEHVAKEISKETGATIRIENPDLNSTYERFIEKYGRDDKYIAKAMSRIGTIDEENAMRSVAYAISTIIEGSLEHHHHHH”, the “soluble on expression in E. coli” value is reported as “not soluble”. For “MEKIKIIVASDSIGETAELVARAGISQFNPKQCKNELLRYPYIESFEDVDEVIQVAKDTNAIIVYTLIKPEMKQYMSEKVAEFQLKSVDIMGPLMDLLSASVEEKPYNEPGIVHRLDDAYFKKIDAIEFAVKYDDGKDPKGLPKADIVLLGISRTSKTPLSQYLAHKSYKVMNVPIVPEVTPPDGLYDIDPKKCIALKISEEKLNRIRKERLKQLGLGDTARYATEARIQEELNYFEEIVSEIGCPVIDVSQKAIEETANDIIHYIEQNKSKLEHHHHHH”, the “soluble on expression in E. coli” value was “not soluble”. With “MEKKLLRKEVLITLKSQPQAYKSEVDCKLLEAFIKTKAYQNSCVIATYLSFDYEYNTQLLIKQALCDGKRVLVPKTYPKGKMIFVDYQKDNLRTTPFGLLEPVNDRAVEKASIDLIHVPGLIFNNKGFRIGYGAGYFDRYLSDFEGDTISTIYRCQRQDFVEEKHDVAVKEVLCLLEHHHHHH” the “soluble on expression in E. coli” value was “soluble”. With “MEKKLPRIKALLTPGEVAKRSGVAVSALHFYESKGLITSIRNSGNQRRYKRDVLRYVAIIKIAQRIGIPLATIGEAFGVLPEGHTLSAKEWKQLSSQWREELDRRIHTLVALRDELDGCIGCGCLSRSDCPLRNPGDRLGEEGTGARLLEDEQN” the “soluble on expression in E. coli” value was “soluble”. With “MEKLRIKGMSYTMCSGKFSIDKEMAETQHGTTVVKVKYEGAGAPCKVPIEIRDVNKEKVVGRIISSTPLAENTNSVTNIELEPPFGDSYIVIGVGNSALTLHWFRKGSSIGK” the “soluble on expression in E. coli” value was “soluble”. In the case of “MEKLTIQEEEVMLHIWSMGECFVKDIVAKFPEPKPPYTTVASIVNNLKRKGYVTAKRFGNTYQYTPVVKQSEYKRTFVSGVVRNYFADSYKEMVSFFAKEQKISAADLKDIINLIEKEEDK”, the “soluble on expression in E. coli” value is reported as “not soluble”. With “MEKLYEGKAKVLYREGPDTLRVYFKDEATAFNAQKRGVIPGKGVVNNKVSAALFRYLEAHGVKTHFLEEVSDREMRVRRVEILPLEVILRFRAAGSFARRYGLKEGTPLKMPLLEFSLKNDALGDPLICENAVLALGLTTEGELEGVKAATLRVGDLLKAFFAERGLELVDFKLEFGKVGGEILLADEISPDTMRLWDEKGEPLDKDRFRKDLGGVEEAYREVLRRVLG” the “soluble on expression in E. coli” value was “soluble”. For “MEKRKHFTPEQKAKIVIEVIKGERTLNEIAAEYGIHPNLLSRWKTEFISNAGRVFSKETDEVEKVKQSYEKEKDELLKQIGQLSYEVAWLKKKSGLL”, the “soluble on expression in E. coli” value was “not soluble”. With “MEKSLKNYKTLQQLFVRRLKAGVRPVDADEHTVVSPVDAVIEDMGTIRENCEMIVKGKPYSIAEMLGSVEAAQPYVNGFFFILYLSPSHYHRIHSPISGVIEKQWALGRKSYPVNRLGLKYGRRPLEKNYRLITEVTAGGKRLAIVKIGAMFVNSIELTHEGEQLVKGEEMAYFSFGSTVVLLFERGSFAPDPRIVAPMPIKVGERLGYWCEAHER” the “soluble on expression in E. coli” value was “not soluble”. For “MELEAGTVVEGRVVRVVSFGAFVELAGGEQGLVHISQIAHEYVTNVRDYLNEGDIVQVLIKGRDAKGRLDLSIKDLTPAPEGGAPPPRPRRLPKQSPEFENKLKSFLRGTGGFGGKGKKGGRKKR”, the “soluble on expression in E. coli” value was “soluble”. For “MELIQDTSRPPLEYVKGVPLIKYFAEALGPLQSFQARPDDLLINTYPKSGTTWVSQILDMIYQGGDLEKCNRAPIYVRVPFLEVNDPGEPSGLETLKDTPPPRLIKSHLPLALLPQTLLDQKVKVVYVARNPKDVAVSYYHFHRMEKAHPEPGTWDSFLEKFMAGEVSYGSWYQHVQEWWELSRTHPVLYLFYEDMKENPKREIQKILEFVGRSLPEETMDFMVQHTSFKEMKKNPMTNYTTVPQELMDHSISPFMRKGMAGDWKTTFTVAQNERFDADYAEKMAGCSLSFRSEL”, the “soluble on expression in E. coli” value was “soluble”.
